Experimental data reported in patent US20040157227A1, “Reproductive cancer diagnosis and therapy” (priority 2001, published 2004).

B1: ghrelin (peptide)
peptide: GSSFLSPEHQRVQQRKESKKPPAKLQPRALAGWLRPEDGGQAEGAEDELEVRFNAPFDVGIKLSGVQYQQHSQALGKFLQDILWEEAKEAPADK
notes: endogenous ligand for the GHS-R, a 28 amino acid peptide

Experiments:
[1] = target: growth hormone secretagogue receptor type 1a (human) (UniProt Q92847); test: cell-based or functional assay
PC3 cells = test: Cell proliferation assay (MTT dye method), PC3 cells; format: cell-based, human; conditions: 5 nM ghrelin, 3 days, 10% FCS
Procedure: FIG. 13: The effect of ghrelin on PC3 cells. Cell proliferation was determined using the MTT dye method. Absorbance readings for each were converted to percentage above control±SEM, indicated by error bars. * denotes P values <0.01, ** P<0.001 (one-way ANOVA with Tukey's post hoc comparisons). Data represents one of 3 identical experiments, each n=16.
(§1) PC3, MDAMB231 and Ishikawa cells were cultured in 96 well plates for 3 days at 37° C. in the presence of ghrelin (0-20 nM), in 10% FCS. Negative controls received no treatment. After aspiration of medium, cells were incubated in MTT (Sigma) solution (0.5 mg/ml) for 2h. MTT solution was aspirated and formazan salts solubilised in dimethyl sulfoxide (ICN, Costa Mesa, Calif.). A Biomeck Plate reader (Beckman, QLD, Australia) was used to measure absorbances (550/650nm).

MDA-MB 231 cells = test: Cell proliferation assay (MTT dye method), MDA-MB 231 cells; format: cell-based, human; conditions: ghrelin 0-20 nM, 3 days, 10% FCS
Procedure: (§2) FIG. 14: The effect of ghrelin on MDA-MB231 and Ishikawa cells. Cell proliferation was determined using the MTT dye method. Absorbance readings for each were converted to percentages above control±SEM, indicated by error bars. * denotes P values <0.01, ** P<0.001 (one-way ANOVA with Tukey's post hoc comparisons).
as §1

Ishikawa cells = test: Cell proliferation assay (MTT dye method), Ishikawa cells; format: cell-based, human; conditions: ghrelin 0-20 nM, 3 days, 10% FCS
Procedure: as §2, §1

Sequence of UniProt Q92847 (Q92847 whole entry): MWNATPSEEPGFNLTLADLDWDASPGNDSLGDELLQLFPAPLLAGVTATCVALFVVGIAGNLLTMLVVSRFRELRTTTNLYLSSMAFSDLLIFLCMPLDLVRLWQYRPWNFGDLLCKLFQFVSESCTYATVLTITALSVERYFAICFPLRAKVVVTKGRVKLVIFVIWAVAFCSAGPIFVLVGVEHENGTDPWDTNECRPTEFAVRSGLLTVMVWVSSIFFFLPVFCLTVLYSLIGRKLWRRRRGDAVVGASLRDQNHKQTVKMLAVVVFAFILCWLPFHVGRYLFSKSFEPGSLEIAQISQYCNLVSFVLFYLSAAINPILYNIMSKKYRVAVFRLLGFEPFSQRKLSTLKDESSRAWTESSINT

Molecule | Cell proliferation of PC3 cells (MTT dye method) (% above controls) [1] | viable cell numbers increased above controls (peak of dose-related increase) (PC3 cells) [%] | dose related increase in cell proliferation above untreated controls (peak) (MDA-MB 231 cells) [%] | dose related increase in cell proliferation above untreated controls (peak) (Ishikawa cells) [%]
human ghrelin (from UniProt Q9UBU3 24-117) (peptide) | 33 |  |  | 
B1 |  | 33 | 25 | 19
